B1: Periplasmic serine endoprotease DegP (Escherichia coli (strain K12)), P0C0V0 (parent)
chain: MKKTTLALSALALSLGLALSPLSATAAETSSATTAQQMPSLAPMLEKVMPSVVSINVEGSTTVNTPRMPRNFQQFFGDDSPFCQEGSPFQSSPFCQGGQGGNGGGQQQKFMALGSGVIIDADKGYVVTNNHVVDNATVIKVQLSDGRKFDAKMVGKDPRSDIALIQIQNPKNLTAIKMADSDALRVGDYTVAIGNPFGLGETVTSGIVSALGRSGLNAENYENFIQTDAAINRGNSGGALVNLNGELIGINTAILAPDGGNIGIGFAIPSNMVKNLTSQMVEYGQVKRGELGIMGTELNSELAKAMKVDAQRGAFVSQVLPNSSAAKAGIKAGDVITSLNGKPISSFAALRAQVGTMPVGSKLTLGLLRDGKQVNVNLELQQSSQNQVDSSSIFNGIEGAEMSNKGKDQGVVVNNVKTGTPAAQIGLKKGDVIIGANQQAVKNIAELRKVLDSKPSVLALNIQRGDSTIYLLMQ
partner: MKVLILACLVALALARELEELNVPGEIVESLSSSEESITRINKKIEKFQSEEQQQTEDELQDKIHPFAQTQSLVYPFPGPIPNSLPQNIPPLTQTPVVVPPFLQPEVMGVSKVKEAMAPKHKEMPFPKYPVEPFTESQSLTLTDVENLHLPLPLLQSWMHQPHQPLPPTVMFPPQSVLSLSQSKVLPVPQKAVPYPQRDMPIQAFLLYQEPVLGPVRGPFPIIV

Variants of: B1
Conditions: with casb_bovin CSN2, P02666

| Variant | effect of a mutation on the interaction |
| --- | --- |
| MKKTTLALSALALSLGLALSPLSATAAETSSATTAQQMPSLAPMLEKVMPSVVSINVEGSTTVNTPRMPRNFQQFFGDDSPFCQEGSPFQSSPFCQGGQGGNGGGQQQKFMALGSGVIIDADKGYVVTNNHVVDNATVIKVQLSDGRKFDAKMVGKDPRSDIALIQIQNPKNLTAIKMADSDALRVGDYTVAIGNPFGLGETVTSGIVSALGRSGLNAENYENFIQTDAAINRGNSGGALVNLNGELIGINTAILAPDGGNIGIGFAIPSNMVKNLTSQMVEYGQVKRGELGIMGTELNSELAKAMKVDAQRGAFVSQVLPNSSAAKAGIKAGDVITSLNGKPISSFAALAAAVGTMPVGSKLTLGLLRDGKQVNVNLELQQSSQNQVDSSSIFNGIEGAEMSNKGKDQGVVVNNVKTGTPAAQIGLKKGDVIIGANQQAVKNIAELRKVLDSKPSVLALNIQRGDSTIYLLMQ [R351A;Q353A] | disrupting interaction |
| MKKTTLALSALALSLGLALSPLSATAAETSSATTAQQMPSLAPMLEKVMPSVVSINVEGSTTVNTPRMPRNFQQFFGDDSPFCQEGSPFQSSPFCQGGQGGNGGGQQQKFMALGSGVIIDADKGYVVTNNHVVDNATVIKVQLSDGRKFDAKMVGKDPRSDIALIQIQNPKNLTAIKMADSDALRVGDYTVAIGNPFGLGETVTSGIVSALGRSGLNAENYENFIQTDAAINRGNSGGALVNLNGELIGINTAILAPDGGNIGIGFAIPSNMVKNLTSQMVEYGQVKRGEWGIMGTELNSELAKAMKVDAQRGAFVSQVLPNSSAAKAGIKAGDVITSLNGKPISSFAALRAQVGTMPVGSKLTLGLLRDGKQVNVNLELQQSSQNQVDSSSIFNGIEGAEMSNKGKDQGVVVNNVKTGTPAAQIGLKKGDVIIGANQQAVKNIAELRKVLDSKPSVLALNIQRGDSTIYLLMQ [L291W] | disrupting interaction |

Variants of: B1
Conditions: with casb_bovin CSN2, P02666
Remark: another data set of the same source

| Variant | effect of a mutation on the interaction |
| --- | --- |
| MKKTTLALSALALSLGLALSPLSATAAETSSATTAQQMPSLAPMLEKVMPSVVSINVEGSTTVNTPRMPRNFQQFFGDDSPFCQEGSPFQSSPFCQGGQGGNGGGQQQKFMALGSGVIIDADKGYVVTNNHVVDNATVIKVQLSDGRKFDAKMVGKDPRSDIALIQIQNPKNLTAIKMADSDALRVGDYTVAIGNPFGLGETVTSGIVSALGRSGLNAENYENFIQTDAAINRGNSGGALVNLNGELIGINTAILAPDGGNIGIGFAIPSNMVKNLTSQMVEYGQVKRGELGIMGTELNSELAKAMKVDAQRGAFVSQVLPNSSAAKAGIKAGDVITSLNGKPISSFAALAAAVGTMPVGSKLTLGLLRDGKQVNVNLELQQSSQNQVDSSSIFNGIEGAEMSNKGKDQGVVVNNVKTGTPAAQIGLKKGDVIIGANQQAVKNIAELRKVLDSKPSVLALNIQRGDSTIYLLMQ [R351A;Q353A] | decreasing interaction |
| MKKTTLALSALALSLGLALSPLSATAAETSSATTAQQMPSLAPMLEKVMPSVVSINVEGSTTVNTPRMPRNFQQFFGDDSPFCQEGSPFQSSPFCQGGQGGNGGGQQQKFMALGSGVIIDADKGYVVTNNHVVDNATVIKVQLSDGRKFDAKMVGKDPRSDIALIQIQNPKNLTAIKMADSDALRVGDYTVAIGNPFGLGETVTSGIVSALGASGLNAENYENFIQTDAAINRGNSGGALVNLNGELIGINTAILAPDGGNIGIGFAIPSNMVKNLTSQMVEYGQVKRGELGIMGTELNSELAKAMKVDAQRGAFVSQVLPNSSAAKAGIKAGDVITSLNGKPISSFAALRAQVGTMPVGSKLTLGLLRDGKQVNVNLELQQSSQNQVDSSSIFNGIEGAEMSNKGKDQGVVVNNVKTGTPAAQIGLKKGDVIIGANQQAVKNIAELRKVLDSKPSVLALNIQRGDSTIYLLMQ [R213A] | disrupting interaction |

Reference: IntAct's records for PubMed 20581825
